Tests used:
[1] = target: C-terminal domain of F-BclA (F-BclA-CTD) (Bacillus thuringiensis subsp. kurstaki); test: crystal structure; F-BclA-CTD; 1M LiCl, 0.1M citrate pH 4.0, 20% (w/v) PEG 6000; P321
[2] = target: ExsF, first 23 residues replaced by a 6xHis tag (B. paranthracis); test: crystal structure; co-crystallisation of 6xHis-ExsF with the synthetic F-Anchor peptide; 5% v/v T-mate pH 7, 0.1 M sodium cacodylate pH 5.3, 15% v/v PEG smear broad, 10% v/v ethylene glycol; 1.92 Å, P21

Row | Substance | stoichiometry N [1] | stoichiometry N [2]
1 | C-terminal domain of F-BclA (F-BclA-CTD) (domain or fragment) | 3 | 
2 | ExsF, first 23 residues replaced by a 6xHis tag (domain or fragment) |  | 3
